The target of data set [1] is T1, LurR (Desulfovibrio vulgaris Hildenborough) (UniProt Q726T3).
T1 sequence: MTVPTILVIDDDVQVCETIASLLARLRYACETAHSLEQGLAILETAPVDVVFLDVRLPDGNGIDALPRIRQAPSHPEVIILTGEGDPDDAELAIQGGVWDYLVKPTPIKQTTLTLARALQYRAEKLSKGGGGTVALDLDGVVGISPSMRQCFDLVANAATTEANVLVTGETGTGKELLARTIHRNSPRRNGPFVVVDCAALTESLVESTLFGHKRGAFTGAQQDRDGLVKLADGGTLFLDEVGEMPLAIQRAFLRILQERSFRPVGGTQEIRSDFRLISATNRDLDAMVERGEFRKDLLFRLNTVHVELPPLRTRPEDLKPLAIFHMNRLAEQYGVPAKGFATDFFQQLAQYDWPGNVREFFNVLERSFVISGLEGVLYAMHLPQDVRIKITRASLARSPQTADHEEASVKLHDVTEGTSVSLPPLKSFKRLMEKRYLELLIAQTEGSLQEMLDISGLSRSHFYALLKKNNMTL
Put plainly: EMSA. As to conditions: 10 mM Tris-HCl pH 7.5, 50 mM KCl, 5 mM MgCl2, 1 ug/ml poly dI.dC, 100 fmol biotinylated DNA in 20 ul, room temperature, 20 min.

Data set [2] addresses T2, PhoB (Desulfovibrio vulgaris Hildenborough) (UniProt Q72D47).
T2 sequence: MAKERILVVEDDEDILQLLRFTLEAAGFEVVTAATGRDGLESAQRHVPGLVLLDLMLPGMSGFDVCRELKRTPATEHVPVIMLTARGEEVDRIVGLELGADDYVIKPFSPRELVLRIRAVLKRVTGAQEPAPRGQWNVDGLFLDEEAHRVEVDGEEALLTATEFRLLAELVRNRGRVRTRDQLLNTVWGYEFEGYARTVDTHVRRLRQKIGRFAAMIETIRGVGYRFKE
Put plainly: EMSA. As to conditions: 10 mM Tris-HCl pH 7.5, 50 mM KCl, 5 mM MgCl2, 1 ug/ml poly dI.dC, 100 fmol biotinylated DNA in 20 ul, room temperature, 20 min.

The target in a further data set is T3, LurR (Desulfovibrio vulgaris Hildenborough, UniProt Q726T3 1-474).
T3 sequence: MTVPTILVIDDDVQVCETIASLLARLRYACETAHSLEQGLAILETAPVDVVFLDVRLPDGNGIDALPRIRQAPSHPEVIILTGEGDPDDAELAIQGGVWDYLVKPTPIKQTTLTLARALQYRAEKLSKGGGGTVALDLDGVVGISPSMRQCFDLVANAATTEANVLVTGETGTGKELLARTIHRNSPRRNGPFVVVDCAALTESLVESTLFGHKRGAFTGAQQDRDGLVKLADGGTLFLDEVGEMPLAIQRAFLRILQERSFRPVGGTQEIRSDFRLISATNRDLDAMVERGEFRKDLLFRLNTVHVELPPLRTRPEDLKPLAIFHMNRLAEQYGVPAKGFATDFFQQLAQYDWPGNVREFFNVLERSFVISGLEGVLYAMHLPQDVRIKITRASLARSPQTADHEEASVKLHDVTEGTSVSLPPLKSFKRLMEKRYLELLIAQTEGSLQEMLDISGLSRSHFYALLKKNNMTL
Put plainly: EMSA; 0.5-1 pmol LurR; 10 mM Tris-HCl pH 7.5, 50 mM KCl, 5 mM MgCl2, 1 ug/ml poly dI.dC, 100 fmol biotinylated DNA in 20 ul, room temperature, 20 min. As to conditions: protein: recombinant; chain copies: 2; label: biotin on one strand.

The values below come from article PMC6456213, “LurR is a regulator of the central lactate oxidation pathway in sulfate-reducing Desulfovibrio species”.

On to “GTCAGTAGGGTAACGCCACACGAAGTCCGCTTTTCAAGACACGCTACCACGCAACCCCATCCACGAGAAACGACAGCCGGAGGAAAAACCAAGGTTACAGCATAGTTACAGATAACACACCATTGGCACATTTCTTGTTAAACTTGCGGAGTTCGCGCTCTCCGCGCAACGGTCTCGGGCTCGCCCGCAAGCACCGTGAACTCCAGCCTCCGGCCCCCGGCGGCATGCCATTTTCACCACGCGCCCACCACAGGGCAGAAAAAGGAGATCGTAAATGGCCAAG (double strand) [por promoter substrate III (283 bp)]”, for which the binding entry in data set [1] and in data set [2] was “binds” throughout. Consider “CGAGAAACGACAGCCGGAGGAAAAACCAAGGTTACAGCATAGTTACAGATAACACACCATTGGCACATTTCTTGTTAAACTTGCGGAGTTCGCGCTCTCCGCGCAACGGTCTCGGGCTCGCCCGCAAGCACCGTGAACTCCAGCCTCCGGCCCCCGGCGGCATGCCATTTTCACCACGCGCCCACCACAGGGCAGAAAAAGGAGATCGTAAATGGCCAAG (double strand) [por promoter substrate IV (220 bp)]”, for which the binding result in data set [1] was “no binding”; in data set [2] it was “binds”.

B1: por LurR motif mut oligo (dsDNA)
DNA 1: GCCACACGAACTGCGCTTTTCAATCAACGCTACCAC
DNA 2: GTGGTAGCGTTGATTGAAAAGCGCAGTTCGTGTGGC
Consider B1, for which the binding result with LurR is recorded as “no binding”.
